{"source": "paper PMC3831880", "origin": "cited, not measured here", "target": "HPr (Escherichia coli) (UniProt P0AA04)", "assay": "PRE titration", "data": [{"substance": "Enzyme I N-terminal domain (EIN) N-terminal domain (from UniProt P08839)", "values": [{"measurement": "Kd", "result": 7, "unit": "µM"}]}]}
